For 1 substance, percent decrease of gH/gL binding to HEK 293 cells by soluble gp42 results are on record in PMC3251506.

The target of this experiment is Epstein-Barr virus glycoprotein H / glycoprotein L complex (gH/gL), wild type (Epstein-Barr virus) (UniProt P03231). Kind of experiment: CELISA.

On to “Epstein-Barr virus glycoprotein 42 (gp42), wild type, soluble form in medium (from UniProt P03205) (natural protein)”, for which the percent decrease of gH/gL binding to HEK 293 cells by soluble gp42 was 50%.
